Three substances from PMC5827684 can be followed below.

Data set [1] deals with Fur (Mn2+-Fur) (Escherichia coli). The data set is described as follows: EMSA. On the technique in general: In EMSA bound probe runs differently from free probe, usually more slowly.
Data set [2] relates to IscR-C92A (apo-locked) (Escherichia coli). The data set is described as follows: EMSA.

In data set [1], hmuR promoter (p1) returned a binding of 31.2 nM.

hmuR-hmuS intergenic, larger fragment yielded a binding in data set [2] of 62.5 nM.

Take “control DNA in 3' end of hmuR coding region”: the binding in data set [2] worked out at 250 nM.
